Here are results for 2 molecules from publication doi:10.1101/2021.03.12.434960.

Experiment [1] concerns the target T1, full-length human KIF5B, C-terminal mScarlet-StrepII (human), P33176.
T1 chain: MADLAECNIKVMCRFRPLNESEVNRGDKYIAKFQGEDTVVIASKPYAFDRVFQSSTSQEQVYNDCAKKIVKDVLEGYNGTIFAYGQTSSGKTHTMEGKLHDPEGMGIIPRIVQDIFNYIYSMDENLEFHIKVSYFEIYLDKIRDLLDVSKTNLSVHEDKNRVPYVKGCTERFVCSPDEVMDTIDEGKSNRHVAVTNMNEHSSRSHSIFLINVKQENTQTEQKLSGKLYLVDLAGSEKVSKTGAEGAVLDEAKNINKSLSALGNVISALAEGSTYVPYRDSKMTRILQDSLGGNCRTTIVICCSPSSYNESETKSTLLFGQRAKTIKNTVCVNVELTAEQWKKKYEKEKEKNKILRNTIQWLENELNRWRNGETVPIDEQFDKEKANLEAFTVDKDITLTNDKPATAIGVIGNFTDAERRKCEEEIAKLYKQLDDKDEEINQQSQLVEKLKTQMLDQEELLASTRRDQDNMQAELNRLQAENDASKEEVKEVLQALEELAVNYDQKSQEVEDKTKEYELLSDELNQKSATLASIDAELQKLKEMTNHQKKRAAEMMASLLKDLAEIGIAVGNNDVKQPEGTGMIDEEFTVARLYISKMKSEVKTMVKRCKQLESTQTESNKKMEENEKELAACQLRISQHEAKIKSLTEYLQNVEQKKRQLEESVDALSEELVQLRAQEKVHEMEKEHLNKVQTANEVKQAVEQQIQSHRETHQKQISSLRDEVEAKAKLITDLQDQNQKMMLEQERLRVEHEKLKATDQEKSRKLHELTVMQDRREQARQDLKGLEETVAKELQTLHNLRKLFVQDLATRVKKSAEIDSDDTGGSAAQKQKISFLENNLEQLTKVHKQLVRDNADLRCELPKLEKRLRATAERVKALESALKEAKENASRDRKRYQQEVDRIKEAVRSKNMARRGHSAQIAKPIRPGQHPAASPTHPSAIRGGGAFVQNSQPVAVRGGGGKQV
Briefly: SEC-MALS. The following applies: remark: other sources report otherwise.

In experiment [2] the target is T2, full-length human KIF5A, C-terminal mScarlet-StrepII (human), Q12840.
T2 chain: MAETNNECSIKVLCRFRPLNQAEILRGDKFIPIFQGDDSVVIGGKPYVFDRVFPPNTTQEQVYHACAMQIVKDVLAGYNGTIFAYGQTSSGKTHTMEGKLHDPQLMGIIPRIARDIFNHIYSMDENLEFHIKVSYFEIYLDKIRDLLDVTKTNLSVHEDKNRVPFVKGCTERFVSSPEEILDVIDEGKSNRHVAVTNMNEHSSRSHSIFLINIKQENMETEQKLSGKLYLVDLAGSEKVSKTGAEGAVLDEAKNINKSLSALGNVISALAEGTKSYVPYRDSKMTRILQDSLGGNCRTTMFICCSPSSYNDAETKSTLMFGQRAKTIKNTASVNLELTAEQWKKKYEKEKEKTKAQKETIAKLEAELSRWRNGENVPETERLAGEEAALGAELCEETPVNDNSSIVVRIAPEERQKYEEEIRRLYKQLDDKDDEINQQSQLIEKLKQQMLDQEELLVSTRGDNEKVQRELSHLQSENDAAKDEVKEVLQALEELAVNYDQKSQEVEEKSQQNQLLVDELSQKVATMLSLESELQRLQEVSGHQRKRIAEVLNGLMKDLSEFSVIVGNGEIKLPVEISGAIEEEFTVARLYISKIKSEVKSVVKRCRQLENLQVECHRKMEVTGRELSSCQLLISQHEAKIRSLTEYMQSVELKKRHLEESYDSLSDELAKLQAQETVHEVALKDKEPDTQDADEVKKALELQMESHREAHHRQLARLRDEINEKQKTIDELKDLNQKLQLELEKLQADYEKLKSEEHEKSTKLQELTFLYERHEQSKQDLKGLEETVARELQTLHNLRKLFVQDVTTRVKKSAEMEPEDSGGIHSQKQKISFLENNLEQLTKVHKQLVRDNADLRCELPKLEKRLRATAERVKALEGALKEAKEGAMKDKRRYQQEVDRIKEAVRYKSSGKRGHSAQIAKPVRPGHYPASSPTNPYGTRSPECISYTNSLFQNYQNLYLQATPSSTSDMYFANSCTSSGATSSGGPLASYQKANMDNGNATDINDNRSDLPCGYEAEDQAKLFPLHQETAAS
Description: SEC-MALS. The note with it: remark: other sources report otherwise. A general note: In gel filtration, larger molecules generally elute earlier.

B1: full-length human KIF5B, C-terminal mScarlet-StrepII, P33176 1-963 (natural protein)
chain: T1 chain
Usually stoichiometry N stands for the number of molecules, sites or subunits per partner or assembly. Molecule B1 gave a stoichiometry N in experiment [1] of 2.

B2: full-length human KIF5A, C-terminal mScarlet-StrepII, Q12840 1-1032 (natural protein)
chain: T2 chain
For the molecule B2, the stoichiometry N in experiment [2] came out at 2.
